T1: soluble human LIFR (leukemia inhibitory factor receptor) (human, UniProt P42702 45-833)
T1 construct: extracellular domain; Bought; also called soluble LIFR
T1 sequence (looked up): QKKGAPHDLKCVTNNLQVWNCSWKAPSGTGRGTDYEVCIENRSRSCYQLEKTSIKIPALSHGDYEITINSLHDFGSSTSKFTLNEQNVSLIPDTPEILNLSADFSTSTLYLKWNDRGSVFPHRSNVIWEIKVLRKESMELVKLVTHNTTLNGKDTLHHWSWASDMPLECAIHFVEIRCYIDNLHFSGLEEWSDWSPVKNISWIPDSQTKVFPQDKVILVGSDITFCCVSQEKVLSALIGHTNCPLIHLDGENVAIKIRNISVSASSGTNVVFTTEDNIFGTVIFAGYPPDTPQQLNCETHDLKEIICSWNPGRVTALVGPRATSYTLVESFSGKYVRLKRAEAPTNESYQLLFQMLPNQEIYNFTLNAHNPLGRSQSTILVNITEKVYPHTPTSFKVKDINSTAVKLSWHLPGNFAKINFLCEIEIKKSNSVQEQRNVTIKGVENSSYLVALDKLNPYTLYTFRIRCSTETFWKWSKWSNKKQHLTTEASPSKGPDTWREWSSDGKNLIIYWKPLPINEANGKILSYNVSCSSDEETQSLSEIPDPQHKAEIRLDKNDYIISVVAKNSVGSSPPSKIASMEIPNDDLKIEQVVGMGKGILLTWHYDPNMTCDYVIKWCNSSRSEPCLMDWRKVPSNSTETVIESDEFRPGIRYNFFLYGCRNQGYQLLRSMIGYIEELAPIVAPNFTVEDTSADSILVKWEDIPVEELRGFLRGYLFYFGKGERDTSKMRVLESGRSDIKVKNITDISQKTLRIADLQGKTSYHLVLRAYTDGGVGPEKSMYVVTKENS

B1: OSM-M2 (OSM with BC loop truncated from 12 to 4 amino acids) (ligand)
chain: AAIGSCSKEYRVLLGQLQKQTDLMQDTSRLLDPYIRIQGLDVPKLREHCRERPGAFPSEETLRGLGRRGFLQTLNATLGCVLHRLADLEQRLGGGNIEDLEKLQMARPNILGLRNNIYCMAQLLDNSDTAEPTKAGAGASQPPTPTPASDAFQRKLEGCRFLHGYHRFMHSVGRVFSKWGESPN
notes: Made from the 'AGA' modified OSM template; lacks the thrombin site; not shown: N-terminal FLAG tag left after thrombin removal of GST
B2: OSM-WT ('AGA' modified human Oncostatin M, referred to as wild-type OSM) (ligand)
chain: AAIGSCSKEYRVLLGQLQKQTDLMQDTSRLLDPYIRIQGLDVPKLREHCRERPGAFPSEETLRGLGRRGFLQTLNATLGCVLHRLADLEQRLPKAQDLERSGLNIEDLEKLQMARPNILGLRNNIYCMAQLLDNSDTAEPTKAGAGASQPPTPTPASDAFQRKLEGCRFLHGYHRFMHSVGRVFSKWGESPN
notes: also called hOSM with AGA modification; not shown: N-terminal FLAG tag left after thrombin removal of GST
B3: OSM-M1 (OSM with BC loop truncated from 12 to 7 amino acids) (ligand)
chain: AAIGSCSKEYRVLLGQLQKQTDLMQDTSRLLDPYIRIQGLDVPKLREHCRERPGAFPSEETLRGLGRRGFLQTLNATLGCVLHRLADLEQRLGAPSGLNIEDLEKLQMARPNILGLRNNIYCMAQLLDNSDTAEPTKAGAGASQPPTPTPASDAFQRKLEGCRFLHGYHRFMHSVGRVFSKWGESPN
notes: as for B1
B4: human leukemia inhibitory factor (LIF) (ligand)
chain: not shown
notes: Purified recombinant protein; also called hLIF

Columns and labels:
[1] = target: T1, soluble human LIFR (leukemia inhibitory …); experiment: SPR (SensiQ), cytokine immobilised, soluble LIFR as analyte, 1:1 model
Procedure: Surface Plasmon Resonance (SPR): Kinetic parameters of the interactions between receptor domains and the cytokines LIF, OSM-WT, OSM-M1 or OSM-M2 were analyzed by SPR using the SENSIQ® system (ICX Technologies, Oklahoma City, Okla.) as described by the manufacturer protocol. Briefly, a carboxyl sensor with two channels was installed in SENSIQ® and allowed to thermally equilibrate for about 15 minutes. The channels were initially cleaned with a 3 minute injection of 0.1 M HCl. An activation solution of 2 mM 1-Ethyl-3-[3-dimethylaminopropyl]carbodiimide hydrochloride (EDC) and 0.5 mM N-hydroxysulfo succinimide (NHS) was prepared in deionized water immediately before injection. Activation solution was injected over both channels for approximately 3 minutes followed by a 10 minute injection of 50 μg/mL cytokine (LIF, OSM-WT, OSM-M1 or OSM-M2) in 10 mM acetate buffer, pH 5.0, over channel 1. […] Unreacted NHS esters were capped with a 3 minute injection of 1 M ethanolamine, pH 8.0, over both channels. […] A concentration series of soluble LIFR (# 249-LR-050/CF, R&D Systems, Minneapolis, Minn.), soluble OSMR (# 4389-OR-50, R&D Systems, Minneapolis, Minn.) or soluble gp130 (# 228-GP-050/CF, R&D Systems, Minneapolis, Minn.) in running buffer (10 mM HEPES pH 7.4, 150 mM NaCl, 3.4 mM EDTA, 0.005% Tween-20) were injected over both channels at a flow rate of 25 μl/min. Following a dissociation period of 3 minutes, the surfaces were regenerated by injecting 10 mM NaOH for 30 seconds. Rate constants for association (kₐ) and dissociation (kd) rates were derived by global analysis of the response curves fit to a 1:1 kinetic model (Equations 1 and 2) using QDat software (BioLogic Software, Ltd. Knoxville Tenn. and Nomadics, Inc. Stillwater, Okla.) using 1:1 stoichiometry.
Reducing the size of the BC loop improves OSM's affinity towards LIFR and OSMR. […] To directly measure the binding kinetics of these ligand-receptor interactions, surface plasmon resonance (SPR) was used.

[2] = target: T1, soluble human LIFR (leukemia inhibitory …); experiment: ELISA, apparent KD (KD,App), cytokine coated, soluble LIFR titrated (direct)
Procedure: For direct interaction studies, cytokines (LIF, OSM-WT, OSM-M1 or OSM-M2) were immobilized on the 96 well ELISA plate by incubating the wells with 200 μl of 5 nM cytokine solution in PBS, pH 7.4 overnight at 4° C. The wells were then blocked with blocking buffer (4% BSA in PBS) for 1 hour at room temperature. After washing with 250 μl of washing buffer (0.05% Tween-20 in PBS) 3 times, the cytokines were treated with a series of concentrations of soluble human LIFR (Catalog #249-LR-050/CF, R&D Systems, Minneapolis, Minn.) or OSMR (Catalog #4389-OR-050, R&D Systems, Minneapolis, Minn.) in 150 μl of blocking buffer for 2 hours. The wells were then incubated with 150 μl of polyclonal anti-hLIFR (Catalog #AF249-NA, R&D Systems, Minneapolis, Minn.) or anti-hOSMR (Catalog #AF662, R&D Systems, Minneapolis, Minn.) in blocking buffer for 1 hour followed by incubation with 150 μl of HRP conjugated […] antibody (GE Healthcare, Uppsala, Sweden) in blocking buffer for 30 minutes. The wells were then washed 3 times with washing buffer and treated with 100 μl of chromogenic Slow-TMB® HRP substrate (Catalog #34024, Thermo Scientific Fisher, Rockford, Ill.) for 15 minutes. The reaction was then stopped by adding 100 μl of 2M H₂SO₄ and the absorbance of each well at 450 nm was read immediately using a UV detector (iMARK® Microplate Reader, Biorad, Hercules, Calif.). For interactions of higher order, soluble human gp130 (Catalog #671-GP-100, R&D Systems, Minneapolis, Minn.) was immobilized on 96 well ELISA microplates by incubating the wells with 200 μl of 1 nM gp130 solution (in PBS, pH 7.4) overnight at 4° C. The wells were then blocked with 150 μl of blocking buffer (4% BSA in PBS) for 1 hour at room temperature. After washing with 250 μl of washing buffer 3 times, gp130 was treated with saturating amounts of the cytokines (500 nM hLIF, 200 nM OSM-WT, 200 nM OSM-M1 or 200 nM OSM-M2) in a volume of 150 μl of blocking buffer for a period of 2 hours. The cytokine solution was discarded and a series of concentrations of soluble human LIFR or OSMR in a final volume of 150 μl blocking buffer were then added to the wells and the incubation was continued for another 1 hour. After washing with 250 μl of washing buffer 3 times, the wells were then incubated with 150 μl of polyclonal anti-hLIFR or anti-hOSMR in blocking buffer for 1 hour.

Binder | Kd [1] | koff [1] | kon [1] | Kd [2]
B1 | 2.74 nM | 0.00356 s⁻¹ | 1.3e+06 M⁻¹ s⁻¹ | 8.75 nM
B2 | 43.8 nM | 0.004 s⁻¹ | 91000 M⁻¹ s⁻¹ | 60 nM
B3 | 7.62 nM | 0.00252 s⁻¹ | 331000 M⁻¹ s⁻¹ | 10.1 nM
B4 | 3.1 nM | 0.0023 s⁻¹ | 740000 M⁻¹ s⁻¹ | 8.58 nM

From patent US20100310509A1 (published 2010)
